Measured values reported in IntAct's records for PubMed 29039417.

B1: Protein PTHB1 (Homo sapiens), Q3SYG4 (parent)
chain: MSLFKARDWWSTILGDKEEFDQGCLCLANVDNSGNGQDKIIVGSFMGYLRIFSPHPAKTGDGAQAEDLLLEVDLRDPVLQVEVGKFVSGTEMLHLAVLHSRKLCVYSVSGTLGNVEHGNQCQMKLMYEHNLQRTACNMTYGSFGGVKGRDLICIQSMDGMLMVFEQESYAFGRFLPGFLLPGPLAYSSRTDSFLTVSSCQQVESYKYQVLAFATDADKRQETEQQKLGSGKRLVVDWTLNIGEQALDICIVSFNQSASSVFVLGERNFFCLKDNGQIRFMKKLDWSPSCFLPYCSVSEGTINTLIGNHNNMLHIYQDVTLKWATQLPHIPVAVRVGCLHDLKGVIVTLSDDGHLQCSYLGTDPSLFQAPNVQSRELNYDELDVEMKELQKIIKDVNKSQGVWPMTEREDDLNVSVVVSPNFDSVSQATDVEVGTDLVPSVTVKVTLQNRVILQKAKLSVYVQPPLELTCDQFTFEFMTPDLTRTVSFSVYLKRSYTPSELEGNAVVSYSRPTDRNPDGIPRVIQCKFRLPLKLICLPGQPSKTASHKITIDTNKSPVSLLSLFPGFASQSDDDQVNVMGFHFLGGARITVLASKTSQRYRIQSEQFEDLWLITNELILRLQEYFEKQGVKDFACSFSGSIPLQEYFELIDHHFELRINGEKLEELLSERAVQFRAIQRRLLARFKDKTPAPLQHLDTLLDGTYKQVIALADAVEENQGNLFQSFTRLKSATHLVILLIALWQKLSADQVAILEAAFLPLQEDTQELGWEETVDAAISHLLKTCLSKSSKEQALNLNSQLNIPKDTSQLKKHITLLCDRLSKGGRLCLSTDAAAPQTMVMPGGCTTIPESDLEERSVEQDSTELFTNHRHLTAETPRPEVSPLQGVSE
partner: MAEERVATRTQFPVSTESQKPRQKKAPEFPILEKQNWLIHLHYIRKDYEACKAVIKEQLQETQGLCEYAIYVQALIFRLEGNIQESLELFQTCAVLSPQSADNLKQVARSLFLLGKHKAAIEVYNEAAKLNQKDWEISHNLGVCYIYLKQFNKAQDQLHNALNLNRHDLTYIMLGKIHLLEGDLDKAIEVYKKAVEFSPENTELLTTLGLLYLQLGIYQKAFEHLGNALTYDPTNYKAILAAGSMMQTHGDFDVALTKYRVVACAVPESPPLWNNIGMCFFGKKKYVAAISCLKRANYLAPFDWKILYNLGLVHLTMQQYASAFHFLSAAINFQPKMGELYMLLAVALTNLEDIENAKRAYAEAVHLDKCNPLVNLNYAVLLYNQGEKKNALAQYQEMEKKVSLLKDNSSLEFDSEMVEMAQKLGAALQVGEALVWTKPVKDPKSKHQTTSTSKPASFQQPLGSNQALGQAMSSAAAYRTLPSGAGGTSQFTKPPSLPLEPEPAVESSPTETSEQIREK

Variants of: B1
Details: with bbs4_human BBS4, Q96RK4

Row | Variant | effect of a mutation on the interaction
1 | Q760E | with no effect
2 | Q760A | with no effect
3 | A746E | with no effect
4 | S745A | with no effect
5 | S745K | with no effect
6 | S745E | disrupting interaction strength
7 | L740K | with no effect
8 | L740A | with no effect
9 | L740E | with no effect
10 | E765K | with no effect
11 | L752K | with no effect
12 | L752E | with no effect
13 | D762A | with no effect
14 | D762K | with no effect
15 | L744A | with no effect
16 | L744K | with no effect
17 | L744E | with no effect
18 | A739K | disrupting interaction strength
19 | A755K | with no effect
20 | A755E | with no effect

Row | Variant | effect of a mutation on the interaction
21 | D747E | with no effect
22 | D747N | disrupting interaction strength
23 | D747K | with no effect
24 | E753K | with no effect
25 | W741E | with no effect
26 | W741A | with no effect
27 | G767A | with no effect
28 | G767E | with no effect
29 | P758E | with no effect
30 | P758A | with no effect
31 | P758K | with no effect
32 | F756K | with no effect
33 | F756E | with no effect
34 | Q764A | with no effect
35 | Q764K | with no effect
36 | Q764E | with no effect
37 | Q748K | disrupting interaction strength
38 | I751E | with no effect
39 | I751K | with no effect
40 | I751A | with no effect

Row | Variant | effect of a mutation on the interaction
41 | Q742A | with no effect
42 | Q742K | with no effect
43 | Q742E | with no effect
44 | K743A | with no effect
45 | K743E | with no effect
46 | L766A | with no effect
47 | L766C | disrupting interaction strength
48 | L766E | with no effect
49 | L759K | with no effect
50 | L759A | with no effect
51 | T763K | with no effect
52 | T763A | with no effect
53 | L757E | with no effect
54 | L757K | with no effect
55 | V749E | with no effect
56 | V749K | with no effect
57 | V749A | with no effect
58 | W768A | with no effect
59 | A750K | with no effect
60 | T771A | with no effect

Continued, values first:

Row | effect of a mutation on the interaction | Variant
61 | with no effect | Q760K
62 | with no effect | A746K
63 | with no effect | E765A
64 | with no effect | L752A
65 | with no effect | D762E
66 | with no effect | E769K
67 | with no effect | E769A
68 | with no effect | A739E
69 | disrupting interaction strength | D747A
70 | with no effect | E770K
71 | disrupting interaction strength | E770A
72 | with no effect | E753A
73 | with no effect | W741K
74 | with no effect | G767K
75 | with no effect | F756A
76 | disrupting interaction strength | Q748L
77 | with no effect | Q748E
78 | disrupting interaction strength | Q748A
79 | with no effect | A754E
80 | with no effect | A754K
81 | with no effect | L766K
82 | with no effect | L759E
83 | with no effect | T763E
84 | with no effect | L757A
85 | with no effect | E761A
86 | with no effect | E761K
87 | with no effect | W768K
88 | with no effect | W768E
89 | with no effect | A750E
